From a protein production outcome set (Wang et al. 2014)

Assay: label from the status in PepcDB records

| Sequence | protein production |
| --- | --- |
| MIPGEILAVLVVVIPGVVNITYRLGIKKATIVGASADLVVAGLMYFLRPQTGFFYIQDSTMLFIIMVLSVYLLSAIYSTRYLKGIEVMGIREPTYYLLLNLFTASMLFSLEVNNYGLMWVGIEATTISSALLLITEKSETSLEATWRYIIIVSAGVTFAFISIILIYYTLGTLSVSTAIGSHVHSRIMVLAVSLALIGFGTKVGVFPVHTWLPDAHSEAPSPVSAMFSGVLLPTALYVLYRVYEIEPVRGLYVWFAVVSIVAASIFMGYQARYKRMFAYSTMENMNLALLGIAVGGSLGFTGALLLLLSHSFGKAGAFYSSGNILRFTGKKEIAEINGMHTSMPYTSTSLLMSSLAVTGAPPFGTFFGEFLILSGVLSLHMYVQFIIVIVFLAAAFISMNYNVTGMIFNGNCPNIEKDRLMPALSIFSSVIPLFIGIFFLVVYNEIL | failed |
| FKGKNLLVIQVESLENFVINKSVNGQEITPNLNKLLKNSLYFSNYNEEVNQGTTSDAELMTNTSIYPVSTGSTFFRYPDNKYYNSLPKILERQGYYTQAMHGDKGSYWNWKPALKSIGFQNIVDSTGFKDDENIGLGLSDGSFLRQAEPMVEASKGPWYNYVITMSGHAPFDLPTKYRELKINSELDSSYLGGYLQSVHYEDKQIGIFLDNLRKSGALDNTMVVIYGDHCGIHKYYQSDVETTKGAESWMIDNHKEVPLIVYNSSLKGKEITTTGGQIDLMPTILYLMGIDKNEYLNTAMGRNLLNTNESYAVWSNGEFIG | failed |
| MNVEKLKRLQAQVRIGGKGTPRRKKKVMHQTAATDDKKLQSSLKKLSVSTIPGIEEVNIIKDDLTVIHFNNPKAQASLSANTFAVTGHGETRKVVEMLPDILPQLGQETVVQLRMYANAMNSQKGAPGSGDGPLPAEEDDDVPLLVGDFDEVAKVEATKQPVHEPKESAEIKAKDKQQQQPKKEQKQSAKVPETTNPSENPKEKQENKKGQAKNNKKGDPQTNKDKTNKSKDQAKGQPAPQANKETTQAAQALKQNPSKPAVQQKKDQVLAVDQKIEANGAIQKAQQPKPAETKSTDQKVEPKSAEKQVDKAKPIEQTKTKESKVEHPKPAQKQLDQNTQAKPTAERSEAKPVVPTPEPQKSAPPAVQTLAQIVALPAEKPANEAVAAPKAEEQKKDSSGPAKVEPAITPSAPQPVTTAEPPKSALKQDSPPKSAPKQGSPPKNVPKQESPPQSAPKQDSPPKGAPKQDSPPKGAPKQDSPPKGAPKQDSAPQQKTPPPVKQEVAPAKQDEPPAKQDAPPAKQDAPVPVPEVIKTLAPEVPNVSQAPAQPQGQAALASEKPADAPKAIEEPKAAPKKESPPPTKPVTATVPVAPATPAEAPSPLAPSTPPSTPTSVPPSAATVTPPSPATVTPPSPAVVTPPQKQSAAPQAGIKKQEAGTKTKQQQPANKPQQPQKQPPGGAGGSAGPGGNKGVQKQPNPNAKPAVAPKPAQATPKPAAASPKASPNQTNPQQQQGKAANKASPPKQTGPTGGQQKSAANASKATASPKSAASPKATSPKAGTPTNPASASGGPN | failed |
| SPEPYPPLVIETPAMEAAVTALIDRVFGPGRFAKSSERLREGNTLLADCSFVSLRDGAPVGCVRMWPVTIGGEPVAFLGPLAVDPDERSAGLGQALVEAACEAARAAGWRAVLLVGDGPYFGRVGFTNAHTAGVIMPGPVDQRRVLLLPLRDGG | failed |
| MLFNSFEFMLLFLPIAVIGYFLLQKVNKNFAKLFLVGMSLYFYAYFEVKYLLLIGVSLFTNAFIGQQIIQKINQKTRKVFLIVGLVFNISLLGYFKYSDFFLDNINTLFGTDVPLLKLLLPLGISFITFQKIGFLVDCYKRELTKFNFIDFCLFVTFFPQLIAGPIVHHSKVLPQFQDESKRRPNIENITKGLYIFGIGLTKKVVIADSLAQWADFGFSNVNQLSTTDAWVSSLAYTLQLYFDFSGYCDMAIGAALLFNIILPINFFSPYKSLSIQDFWRRWHMTLGRFFTQYVYIPLGGSRKGQIRTYLNLFTIFLISGIWHGAGWTFVIWGVLHGLAIVIHRLFKNLGGKMPKFIAWILTMGFVHVTWVFFRATSVEDALTMLNRMFNVNYLHIQTALIQFRPETLTGVSIMDNLIYSICNLFPFQVTGDHFNFQTILYLAIGIAIVLFTKNSIEKLESFRPKPIYALALASMFILSLMYLNRVSSFLYFNF | failed |
| MEYYNLILYLLVFGADMLIILQTYNEIKMWKTVKGNFVGKVSIIVPIKGIDTRLERNIESLLSQDYPYPYEVIYVVEKGDEVENILKKYNVKIVYSDFNCDSCSGKIRAQISGLLRASNDIIVFADSDTWYPRYWLRNLISPLDKYDTTTTFSWPFPSRITLSNLIRAGFWTLGFESQSLQSSRFLWGGSMALRREFFDNEVLDELSKEWCDDCTLTRIIKRRGGKIGFVMSAIPLNVYDENSLISWSSRQIITILAYSPRGARAYLVAGTFFALILIYSLVYLNIVTFTPYILWIVKNVIRGVKYPKQALIASLMTILAIPYALFLLVFNWNRREVYWRGKRYIVKPLREK | failed |
| MSKHVNWSGVFPAVTTQFNADFSVNLEETHTVISNLVRDGVSGLVVCGSVGENTSLTIEEKMAVTEVAKDASGGRVPVICGIAEFTSAGAAKVAKAVERVGVDGIMVMPALVYSSKPHETAEHFRSVASGTDLPVMVYNNPPIYRNDVTPDILVSLADCENIVCFKDSSGDTRRFIDVRNQVGERFILFAGLDDVVLESVAVGAQGWISGMSNVFPKEGETIFRLARAGRFAEAMPIYEWLMPILHLDARPDLVQCIKLCEQLAGRGSALTRPPRLALRGADREHVERIMAKALA | failed |
| MTQHQTLPQTTEGAYHYQVIRRAIELIDQTDQPISLDEIAANMGMSPAHFQRVFSRWVGVLEHHHHHH | not failed |
| MKGTNTIYIIISSILLAYIMQIFVLYPFTAVAIGIPLGLLSRKYSAIGGFLIGFLSSLSLYLIYPINAVSKIAEIIGQLIGINPFLVVLLYPLIYGTISLISALLFYYIVRLNK | failed |
| MALTATVDVELKIRHSVPQRREPTKWRRIMYAITGITGKVGGAMARALLAAGQPVRAIVRDATKGRQWAALGCDVAIATMEDAEALTQAFKGATAVFILPPPVFDPEPFYPEAQAVIDSVATALRAAKPARVVCLSTVGADAVQDNLLSQHTKMETALSALPLALTLLRPAWFLDNVAWDVSSARGAGLIHSFLAPTGRALPMVAAEDVGRVAATLIQQDWSGTRIVELEGPERVSPDDLAAAFTTVLGKPVRAVPVPRETWEALFRSQGMRNPQPRMRMLDGFNEGWIAFADEARTIKGTISATTVVQALVAGEGA | failed |
| MNSFPAQNLMLSATNANKDSGLRTSNAHWLHSCIAVPKTTGIDLSQEPPAEGVMVPQSHLFPPPIRDSRNDTETVKQKSVNQSPSKALKPKPQRKKRSVSNKSKKTPSIPETKREKKNLDINIDISSFDTSGVPPPVCSCTGVSRVCYKWGMGGWQSSCCTISISTYPLPMSTTRPGARLAGRKMSNGAYVKLLARLADEGYDLSHPLDLKNHWARHGTNKFVTIK | failed |
| MGVNMRAETESRIFSVDEYVRPSNGEPIRSVVLETNDSVVVVWHAHPGQEIASHVHPHGQDTWTVISGEAEYHQGNGIVTHLKAGDIAIAKPGQVHGAMNSGPEPFIFVSVVAPGNAGFALAEK | not failed |
| MESSPSGSEPPQKVVSKLQKVGWRATMIFNLGFAAYIFAIKREKDIDADEKKKVKKGSEARHKGVKKGAVNTEIEKKGAEETDKAKEAETAIPEKEETKLIPELDPLFEFTDATDQSMFQTVATEHVKVARKPIPEDEQKELFKWILEEKRKIEPKDRKEKKQIDEEKAILKQFIRAERIPKLLPDDSVDSSLRDWDKFFSK | failed |
| MTELFIFDREDQLLTTLTESTGLVRALFREELNRVPNQPFAFTIEASSEEAKHVIEEHQVVFRDKEGDLRLFVIKELEDVDGLDGPQTTAICEPAFMELAEHMIVEQSVVNQPAHEALNVALQGTRWTGSVEVNLGNATEHFSYVSAIEAVWNILVTWGGDFKDVVTFNAENRITSHQIKIVQRRGVDRGKRFEIDHNIEQIERTILSYPVTALYGRGASLQGENGEDGSLDFGEVEWRKSAGAPVDKPKGQLWVGDPEALQKYGRKHNGQLLHREGIFQNTNIEDPEELLEKTWEQLQKSSKPEVHYRLSVRLFEHISGYEHEQASLGDTAIAIDRQFSRPIEIQSRIIAIEYDLVDIDGTGMVEMGQFLSLNGMDERLERIIEEIEKNQGKWGSSGTITRDKYPDIKPSAPVNLRAESGFQAIQLYWDYADELYIEHYEVYGSQVSDFVPDSQHLLWRGKVSAFAHFVDKDQQWYYYVRAVNFHGRPSDWSDKVSGSTQRIISDDILFGPDLAERLRELNRISDIIGEGGVNFEQISDHAKALLNQEARQYTDEEIRAVEDAINAELAEKAGLTYVEGKFSLIDSELEAVDGKFVSVSTQLAEIETEISLKAEQTQVDVIEGEITNVAQDLSQLTVSVNGVQSEVTSIRSGIGHLVEIVNGKATEYKLHFSFNASRDYLVLLTRADLTGARNYVAGTFFGRRVSGNVGSGKIEVIFNNSSNGDRASGYFEASEIQTLNGWSMVTCDYKGEKYIALRHQLPNEHDIWNTDTRFYGQIGSDSEMLLPVDNWGGNPDITNIQPFESSRPVATPIMRAETRIDQNSQQIALRATEINSLAGRMTQAEAELSVQATEIAARVEKDGIVTALNLSPEGIRIKGSLIHLDGTTLINDGVIQNAHIANAAITRAKLDTAVIGTAQIEDLAVTSAKIASVNADKINAASLSAISANLGTVTAGVMRSNNNNMELNLNTGTLNMRNTNFTLGSGADIEFTDPGNRLYFKQYDPVGNITRSAGFGIGRSINDRFPYGFLGTTNTTKPNPIDDQNFTGFITNTNQRMITDGIGNSVVGRIFHIRDQAVSFRKGVAFNFSDSTTMNIFPINTGSYDYVFGSNNNKWKDIHADNIRAAQVYIRNPVGTGGYLFETQPESGSATMVFRGINVSFSDWNYNLGTSSAPWNFGRINHLRPSGSSHSVGSFSERYNFVYTNTLVEGSDIKIKSDIKNSFLGLAFIKDLRPVDFQLVENEQYKTGLIAQEVAAELEHHGIDLEKQTIVTINDSVMGVSYTQLIAPTIKAIQELDSYVRDEVNSLKLENQRLKEKITKLEEKIA | failed |
| MEPISARSMISAAATEAVVASGDGAPRVERRKRLSPAALAVANQKVPPAFSPIVIAGSVRLADFLVIAAVGIALYFALVVRRDGFAWEYIAAILGTTATAVVAFQAADLYEVQLFRGTLKQMTRIISTWSIVFLLFIGASFFAKLGGEVSRLWLGSFFFAGLALLIIERLSVRALVRRWASQGRLDRRTVIVGADANGAKLIEALKAEHADASDIRILGVFDDRNDARSQSTCAGVPKLGKVDDIPEFARRTRVDLVLFALPISAETRILDMLKKLWVLPVDIRLSAHTNKLRFRPRAYSYVGKVPTLDVFEAPITDWDQVIKQVFDRVVGGFILLLAAPVMALVALAIKLDSPGPVLFRQKRFGFNNERIDVLKFRSMYHDQADPTASKVVTRNDPRVTRVGRFIRRTSLDELPQLFNVVFKGNLSLVGPRPHAVQGKLQSQLFDEAVDGYFARHRVKPGITGWAQINGWRGEIDNEEKIQKRVEFDLYYIENWSVLFDLYILLRTPWALLKGENAY | failed |
| MAVDWERRIDFDRLRTQRLTRALDALERSELGALLLFDMNNIRYTTATHIGNWARDKLFRMALLIRGQAPILWDIGSAARLHQMQAPWLPQESWRAGLSTWRGAIDDEVGVQTGNAKKVADLLREHGLANDPVGVDVVELPMLKALEAEGLTIVDGQGLMLDVRSIKTVDEIALLDHAAACVDAAYEELYKFLRVGVKENETVALVNKVLYELGSEEVEAVNAISGERCSPHPHVFSDRMIRPMDTAYFDIVHSYMGYRTCYYRTLNVAGATRAQRDAYKRAREYIDLAISEVKPGVLTSDIVKHFPAAQEFGFASEEEAFGLQYCHGVGLSVWEKPLMSRYHSFDHPVEIKEGMVFALETYWPTADGSSAARIEEEVEVTATGARVITRFPADELLVAGTRYWNGFDFPEIKAPIGRGVASGVAATNGAGAS | failed |
| MINLELFKEFLLNLIKDYGYFGIFLVGFSEPIFQPFPTEIFIIAGILLGLDWKLVWLISTIACNFGAVVTYYLAKKYGEKLMLKLFDEEKIKKGSHYLKKWGILGVIIASFTPIPFEVICWVCGSFEMPFERYMIAVFLSRLIRHGMVILPFVLKDHIHF | failed |
